Data: patent publication US20080194485A1, “Detection and Use of Prolylcarboxypeptidase” (YALE UNIVERSITY, priority 2004, published 2008)

Biological target: recombinant PRCP51 (recombinant human prolylcarboxypeptidase, predicted molecular mass 51 kDa) (human) (UniProt P42785)
Assay: cell-based or functional assay

Chain of recombinant PRCP51 (recombinant human prolylcarboxypeptidase, predicted molecular mass 51 kDa) (human) (P42785 46-496 limits assumed): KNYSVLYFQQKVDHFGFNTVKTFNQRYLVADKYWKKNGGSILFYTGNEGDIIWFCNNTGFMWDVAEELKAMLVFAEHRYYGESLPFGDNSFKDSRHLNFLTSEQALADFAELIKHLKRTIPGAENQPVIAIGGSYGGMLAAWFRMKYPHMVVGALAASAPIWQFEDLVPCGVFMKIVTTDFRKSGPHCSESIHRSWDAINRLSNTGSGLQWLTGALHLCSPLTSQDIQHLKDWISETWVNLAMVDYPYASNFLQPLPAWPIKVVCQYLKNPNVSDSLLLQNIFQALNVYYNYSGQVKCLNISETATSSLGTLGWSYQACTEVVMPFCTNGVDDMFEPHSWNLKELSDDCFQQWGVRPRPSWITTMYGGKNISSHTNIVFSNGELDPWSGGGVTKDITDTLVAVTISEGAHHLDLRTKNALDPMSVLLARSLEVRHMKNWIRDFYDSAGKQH

angiotensinogen II (AgII) (from UniProt P01019 25-32) (peptide)
inhibition of rPRCP51-induced prekallikrein (PK) activation (residual kallikrein activity on S2302), IC50: 150 µM
